Test results reported in patent US9969998B2, “Compositions of adenosine deaminase-2 (ADA2), variants thereof and methods of using same” (Halozyme, Inc., priority 2014, dated 2018).

Experiment: Adenosine deaminase (ADA) enzymatic activity assay kit
Type: biochemical
Settings: purified protein at 5 μg/mL; for % of WT activity: compared to WT-ADA2
Procedure: Adenosine deaminase activity was determined using an adenosine deaminase (ADA) assay kit (Genway, San Diego, Calif.; Cat. No. BQ014EALD) with minor modifications. The ADA assay is based on the enzymatic deamination of adenosine to inosine, which is converted to hypoxanthine by purine nucleoside phosphorylase (PNP). Hypoxanthine is then converted to uric acid and hydrogen peroxide by xanthine oxidase (XOD). Hydrogen peroxide is further reacted with N-Ethyl-N-(2-hydroxy-3-sulfopropyl)-3-methylaniline (EHSPT) and 4-aminoantipyrine (4-AA) in the presence of peroxidase (POD) to generate quinone dye, which is monitored in a kinetic manner.
Briefly, 5 μL samples in duplicates (at appropriate dilutions to measure steady-state, non-saturating enzyme activity) were added to 120 μL R1 reagent (provided by the manufacturer; 50 mM Tris HCL, pH 8.0, 2 mM 4-AA, 0.1 U/mL PNP, 0.2 U/mL XOD, 0.6 U/mL peroxidase) in a 96 well plate, according to manufacturer's instructions. The mixtures were incubated at 37° C. for approximately 5 min and 60 μL of R2 reagent (provided by the manufacturer; 50 mM Tris HCl, pH 4.0, 10 mM Adenosine, 2 mM EHSPT) was added to the mixtures. Then, change in absorbance (AA) at 556 nm over time at 37° C. was measured. One unit of ADA is the amount of ADA that generates one μmole of inosine from adenosine per minute at 37° C. Adenosine deaminase activity in mU/mL was calculated using the following formula: 1 mU/mL=(ΔA/min×Tv)/(Sv×ϵ×1) • where Tv=total volume (185 μL), Sv=sample volume (5 μL), ϵ=32.2×10^−3 μM^−1 cm^−1, 1=0.5 cm.
Adenosine deaminase activity of WT rHuADA2 and variants tested above were determined using the adenosine deaminase activity (ADA) assay described in Example 4. Activity was assessed on purified rHuADA2 WT and variants that were diluted to 5 μg/mL, and then serially diluted 2 fold to generate 4 measurements.
Adenosine deaminase activity of PEGylated rHuADA2 and variants was assessed using the method described in Example 4, and compared to the activity of the corresponding non-PEGylated form.
Selected candidate variants described in Table 8 above, containing an amino acid substitution in a residue that play a role in enzymatic activity, were assessed for their adenosine deaminase activity using the method described in Example 4. To perform the experiments, purified WT rHuADA2 and tested variants were prepared at 5 μg/mL concentration to normalize the amount of protein in each experiment.

Molecule | Adenosine deaminase activity mU/ml [mU/ml] | Adenosine deaminase activity ΔA/min | % of WT activity [%]
S265A: ADA2 variant SEQ ID NO:51 (protein, human ADA2 S262A, mature numbering) IDETRAHLLLKEKMMRLGGRLVLNTKEELANERLMTLKIAEMKEAMRTLIFPPSMHFFQAKHLIERSQVFNILRMMPKGAALHLHDIGIVTMDWLVRNVTYRPHCHICFTPRGIMQFRFAHPTPRPSEKCSKWILLEDYRKRVQNVTEFDDSLLRNFTLVTQHPEVIYTNQNVVWSKFETIFFTISGLIHYAPVFRDYVFRSMQEFYEDNVLYMEIRARLLPVYELSGEHHDEEWSVKTYQEVAQKFVETHPEFIGIKIIYADHRSKDVAVIAESIRMAMGLRIKFPTVVAGFDLVGHEDTGHSLHDYKEALMIPAKDGVKLPYFFHAGETDWQGTSIDRNILDALMLNTTRIGHGFALSKHPAVRTYSWKKDIPIEVCPISNQVLKLVSDLRNHPVATLMATGHPMVISSDDPAMFGAKGLSYDFYEVFMGIGGMKADLRTLKQLAMNSIKYSTLLESEKNTFMEIWKKRWDKFIADVATK | 47.1 | 20.5 ΔA/min | 60
S265V: ADA2 variant SEQ ID NO:52 (protein, human ADA2 S262V, mature numbering) IDETRAHLLLKEKMMRLGGRLVLNTKEELANERLMTLKIAEMKEAMRTLIFPPSMHFFQAKHLIERSQVFNILRMMPKGAALHLHDIGIVTMDWLVRNVTYRPHCHICFTPRGIMQFRFAHPTPRPSEKCSKWILLEDYRKRVQNVTEFDDSLLRNFTLVTQHPEVIYTNQNVVWSKFETIFFTISGLIHYAPVFRDYVFRSMQEFYEDNVLYMEIRARLLPVYELSGEHHDEEWSVKTYQEVAQKFVETHPEFIGIKIIYVDHRSKDVAVIAESIRMAMGLRIKFPTVVAGFDLVGHEDTGHSLHDYKEALMIPAKDGVKLPYFFHAGETDWQGTSIDRNILDALMLNTTRIGHGFALSKHPAVRTYSWKKDIPIEVCPISNQVLKLVSDLRNHPVATLMATGHPMVISSDDPAMFGAKGLSYDFYEVFMGIGGMKADLRTLKQLAMNSIKYSTLLESEKNTFMEIWKKRWDKFIADVATK | 66.1 | 28.8 ΔA/min | 85
S265M: ADA2 variant SEQ ID NO:53 (protein, human ADA2 S262M, mature numbering) IDETRAHLLLKEKMMRLGGRLVLNTKEELANERLMTLKIAEMKEAMRTLIFPPSMHFFQAKHLIERSQVFNILRMMPKGAALHLHDIGIVTMDWLVRNVTYRPHCHICFTPRGIMQFRFAHPTPRPSEKCSKWILLEDYRKRVQNVTEFDDSLLRNFTLVTQHPEVIYTNQNVVWSKFETIFFTISGLIHYAPVFRDYVFRSMQEFYEDNVLYMEIRARLLPVYELSGEHHDEEWSVKTYQEVAQKFVETHPEFIGIKIIYMDHRSKDVAVIAESIRMAMGLRIKFPTVVAGFDLVGHEDTGHSLHDYKEALMIPAKDGVKLPYFFHAGETDWQGTSIDRNILDALMLNTTRIGHGFALSKHPAVRTYSWKKDIPIEVCPISNQVLKLVSDLRNHPVATLMATGHPMVISSDDPAMFGAKGLSYDFYEVFMGIGGMKADLRTLKQLAMNSIKYSTLLESEKNTFMEIWKKRWDKFIADVATK | 81.6 | 35.5 ΔA/min | 105
